B1: Gluc2-DP1 (natural protein, human, UniProt Q14186 1-410, looked up)
chain: MAKDAGLIEANGELKVFIDQNLSPGKGVVSLVAVHPSTVNPLGKQLLPKTFGQSNVNIAQQVVIGTPQRPAASNTLVVGSPHTPSTHFASQNQPSDSSPWSAGKRNRKGEKNGKGLRHFSMKVCEKVQRKGTTSYNEVADELVAEFSAADNHILPNESAYDQKNIRRRVYDALNVLMAMNIISKEKKEIKWIGLPTNSAQECQNLEVERQRRLERIKQKQSQLQELILQQIAFKNLVQRNRHAEQQASRPPPPNSVIHLPFIIVNTSKKTVIDCSISNDKFEYLFNFDNTFEIHDDIEVLKRMGMACGLESGSCSAEDLKMARSLVPKALEPYVTEMAQGTVGGVFITTAGSTSNGTRFSASDLTNGADGMLATSSNGSQYSGSRVETPVSYVGEDDEEDDDFNENDEDD
notes: human DP1, whole ORF (bought from Addgene); source: HEK293T, transfected (pSPICA vector), in cells; not shown: Gluc2 (fragment of Gaussia princeps luciferase), N-terminal, kept
B2: Gluc2-E2F4 FL (natural protein)
chain: not shown
notes: human E2F4, whole ORF (bought from Addgene), 413 residues by the printed numbering; source: HEK293T, transfected (pSPICA vector), in cells; not shown: Gluc2 (fragment of Gaussia princeps luciferase), N-terminal, kept

Tests used:
Test in all cases: split reporter (BiFC, NanoBiT); Gaussia princeps protein complementation assay (GPCA): Gluc1 and Gluc2 N-terminal fusions co-transfected in HEK293T, luminescence of lysates after 48 h as normalized luminescence ratio (NLR); pairs count as interacting if NLR is above 5
Conditions in all cases: partners not purified
[1] = target: T1, Gluc1-E2F4 (human, UniProt Q16254 1-413)
T1 construct: human E2F4, whole ORF (bought from Addgene); source: HEK293T, transfected (pSPICA vector), in cells; not shown: Gluc1 (fragment of Gaussia princeps luciferase), N-terminal, kept

[2] = target: T2, Gluc1-ΔNp73α FL (human, UniProt O15350-8 1-587)
T2 construct: ΔNp73α isoform of p73, whole ORF, 587 residues by the printed numbering; numbers count on: ΔNp73α; source: HEK293T, transfected (pSPICA vector), in cells; not shown: Gluc1 (fragment of Gaussia princeps luciferase), N-terminal, kept
T2 sequence (looked up): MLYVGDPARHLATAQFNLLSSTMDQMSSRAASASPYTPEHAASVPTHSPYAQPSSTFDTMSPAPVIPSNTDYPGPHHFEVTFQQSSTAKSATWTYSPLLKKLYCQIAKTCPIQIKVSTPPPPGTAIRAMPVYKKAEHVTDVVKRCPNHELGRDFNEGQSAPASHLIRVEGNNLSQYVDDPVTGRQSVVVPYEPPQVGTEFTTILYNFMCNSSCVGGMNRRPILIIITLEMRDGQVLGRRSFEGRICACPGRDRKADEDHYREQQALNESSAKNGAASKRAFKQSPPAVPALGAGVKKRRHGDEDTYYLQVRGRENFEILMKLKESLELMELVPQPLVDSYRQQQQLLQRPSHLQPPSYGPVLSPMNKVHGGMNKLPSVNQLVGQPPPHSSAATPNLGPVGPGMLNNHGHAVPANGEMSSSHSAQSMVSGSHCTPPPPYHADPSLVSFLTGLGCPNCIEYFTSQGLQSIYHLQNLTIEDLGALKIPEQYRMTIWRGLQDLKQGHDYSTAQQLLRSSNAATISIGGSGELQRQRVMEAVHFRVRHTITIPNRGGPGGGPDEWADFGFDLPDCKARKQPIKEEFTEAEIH

[3] = target: T3, Gluc1-TAp73α (human, UniProt O15350 1-636)
T3 construct: also called full-length TAp73α; source: HEK293T, transfected (pSPICA vector), in cells; not shown: Gluc1 (fragment of Gaussia princeps luciferase), N-terminal, kept
T3 sequence (looked up): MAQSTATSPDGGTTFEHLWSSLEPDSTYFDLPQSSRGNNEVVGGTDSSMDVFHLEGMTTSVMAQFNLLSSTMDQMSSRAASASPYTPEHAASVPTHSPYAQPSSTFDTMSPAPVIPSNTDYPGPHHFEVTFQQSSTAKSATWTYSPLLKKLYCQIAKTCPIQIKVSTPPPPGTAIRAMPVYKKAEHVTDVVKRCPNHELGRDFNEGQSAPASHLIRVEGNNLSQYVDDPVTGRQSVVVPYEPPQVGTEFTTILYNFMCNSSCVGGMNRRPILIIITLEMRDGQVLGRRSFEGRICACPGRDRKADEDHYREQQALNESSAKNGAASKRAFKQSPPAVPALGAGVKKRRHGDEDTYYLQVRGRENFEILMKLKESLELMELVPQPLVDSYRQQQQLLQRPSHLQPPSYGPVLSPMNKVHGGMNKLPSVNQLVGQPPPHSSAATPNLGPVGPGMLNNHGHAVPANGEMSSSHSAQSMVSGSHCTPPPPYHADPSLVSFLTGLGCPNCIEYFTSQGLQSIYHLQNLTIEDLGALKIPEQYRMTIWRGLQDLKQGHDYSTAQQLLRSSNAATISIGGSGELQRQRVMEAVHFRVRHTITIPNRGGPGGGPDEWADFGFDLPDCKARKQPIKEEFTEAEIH

T1 sequence (Q16254 whole entry, the tested form may be a part): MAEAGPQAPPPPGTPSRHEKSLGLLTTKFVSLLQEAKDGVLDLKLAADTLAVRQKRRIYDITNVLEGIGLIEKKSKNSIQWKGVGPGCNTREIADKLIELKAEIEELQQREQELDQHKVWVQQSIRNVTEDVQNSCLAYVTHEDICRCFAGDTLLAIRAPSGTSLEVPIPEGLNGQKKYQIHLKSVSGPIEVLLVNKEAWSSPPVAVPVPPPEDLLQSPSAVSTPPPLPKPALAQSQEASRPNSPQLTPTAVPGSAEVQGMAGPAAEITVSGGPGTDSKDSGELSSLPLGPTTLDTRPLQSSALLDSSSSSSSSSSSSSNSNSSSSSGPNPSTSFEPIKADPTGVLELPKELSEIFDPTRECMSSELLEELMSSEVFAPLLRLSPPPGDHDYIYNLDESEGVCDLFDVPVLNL

| Binder | normalized luminescence ratio (NLR) [1] | normalized luminescence ratio (NLR) [2] | binding response relative to that obtained with ΔNp73α [3] [%] |
| --- | --- | --- | --- |
| B1 | ~500 |  |  |
| B2 |  | > 20 | ~50 |
